According to US20130007924A1:

What was measured:
[1] = target: putative receptor proteins in brush border membrane vesicles (BBMV) from European corn borer (Ostrinia nubilalis) larval midgut (Ostrinia nubilalis); test: heterologous competition: unlabeled Cry2Aa at 1,000 nM against 0.5 nM 125I Cry1Ab on ECB BBMV
[2] = target: putative receptor proteins in brush border membrane vesicles (BBMV) from European corn borer (Ostrinia nubilalis) larval midgut (Ostrinia nubilalis); test: homologous competition: unlabeled Cry1Ab against 0.5 nM 125I Cry1Ab on ECB BBMV

Substance	percent displacement of 125I Cry1Ab at 1,000 nM competitor [1] [%]	IC50 [2] [nM]
Cry2Aa protein (from UniProt P0A377 1-633)	< 50	
Cry1Ab protein (truncated Cry toxin) (from UniProt P0A370 29-612)		3
